# Data: patent publication US20020142964A1 (published 2002)
# Target: T1, human G-CSF receptor (human, UniProt Q99062 25-836)
# T1 sequence (looked up): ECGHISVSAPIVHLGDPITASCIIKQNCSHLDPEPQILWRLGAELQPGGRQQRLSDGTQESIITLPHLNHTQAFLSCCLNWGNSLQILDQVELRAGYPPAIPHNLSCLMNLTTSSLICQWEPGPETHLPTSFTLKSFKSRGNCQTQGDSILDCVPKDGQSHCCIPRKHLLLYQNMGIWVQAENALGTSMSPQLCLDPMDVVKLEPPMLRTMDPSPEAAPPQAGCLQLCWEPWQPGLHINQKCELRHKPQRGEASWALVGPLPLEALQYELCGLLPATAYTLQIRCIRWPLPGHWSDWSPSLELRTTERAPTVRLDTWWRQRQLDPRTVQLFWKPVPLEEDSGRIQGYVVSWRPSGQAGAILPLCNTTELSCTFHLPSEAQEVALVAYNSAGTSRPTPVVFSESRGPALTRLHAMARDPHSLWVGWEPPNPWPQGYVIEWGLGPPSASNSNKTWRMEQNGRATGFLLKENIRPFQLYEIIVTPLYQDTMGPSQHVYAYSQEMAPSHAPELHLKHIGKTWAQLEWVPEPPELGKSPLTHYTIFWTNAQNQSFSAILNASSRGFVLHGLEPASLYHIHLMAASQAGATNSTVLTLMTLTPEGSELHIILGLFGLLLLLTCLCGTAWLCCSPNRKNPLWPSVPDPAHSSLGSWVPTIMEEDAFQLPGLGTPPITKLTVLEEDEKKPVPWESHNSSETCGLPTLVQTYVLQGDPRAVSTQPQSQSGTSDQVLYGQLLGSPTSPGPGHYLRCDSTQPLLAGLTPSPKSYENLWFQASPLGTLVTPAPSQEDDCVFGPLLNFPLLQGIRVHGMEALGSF
# Experiment: cell-based or functional assay
row,Binder,"EC50, luciferase reporter assay in BaF3/hGCSF-R/pfos-lux cells (Primary assay 2)"
1,non-conjugated hG-CSF (Neupogen®) (ligand) TPLGPASSLPQSFLLKCLEQVRKIQGDGAALQEKLCATYKLCHPEELVLLGHSLGIPWAPLSSCPSQALQLAGCLSQLHSGLFLYQGLLQALEGISPELGPTLDTLQLDVADFATTIWQQMEELGMAPALQPTQGAMPAFASAFQRRAGGVLVASHLQSFLEVSYRVLRHLAQP,0.03 nM

# Target: T1, human G-CSF receptor
# Experiment: cell-based or functional assay
# Remark: another data set of the same source
row,Binder,"Specific activity (% of Neupogen®), from EC50 in luciferase reporter assay"
1,"Single-chain G-CSF dimer (K16R K34R K40R)copy 1,2 (ligand) TPLGPASSLPQSFLLRCLEQVRKIQGDGAALQERLCATYRLCHPEELVLLGHSLGIPWAPLSSCPSQALQLAGCLSQLHSGLFLYQGLLQALEGISPELGPTLDTLQLDVADFATTIWQQMEELGMAPALQPTQGAMPAFASAFQRRAGGVLVASHLQSFLEVSYRVLRHLAQPTPLGPASSLPQSFLLRCLEQVRKIQGDGAALQERLCATYRLCHPEELVLLGHSLGIPWAPLSSCPSQALQLAGCLSQLHSGLFLYQGLLQALEGISPELGPTLDTLQLDVADFATTIWQQMEELGMAPALQPTQGAMPAFASAFQRRAGGVLVASHLQSFLEVSYRVLRHLAQP",300 % of Neupogen®
2,"Single-chain G-CSF dimer (K16R K34R K40R)copy 1,2 PEG12000 (ligand, SPA-PEG 12000 covalently linked to the available PEGylation sites; number and positions not stated) TPLGPASSLPQSFLLRCLEQVRKIQGDGAALQERLCATYRLCHPEELVLLGHSLGIPWAPLSSCPSQALQLAGCLSQLHSGLFLYQGLLQALEGISPELGPTLDTLQLDVADFATTIWQQMEELGMAPALQPTQGAMPAFASAFQRRAGGVLVASHLQSFLEVSYRVLRHLAQPTPLGPASSLPQSFLLRCLEQVRKIQGDGAALQERLCATYRLCHPEELVLLGHSLGIPWAPLSSCPSQALQLAGCLSQLHSGLFLYQGLLQALEGISPELGPTLDTLQLDVADFATTIWQQMEELGMAPALQPTQGAMPAFASAFQRRAGGVLVASHLQSFLEVSYRVLRHLAQP",10 % of Neupogen®
3,"Single-chain G-CSF dimer PEG12000 (ligand, SPA-PEG 12000 covalently linked to the available PEGylation sites; number and positions not stated) TPLGPASSLPQSFLLKCLEQVRKIQGDGAALQEKLCATYKLCHPEELVLLGHSLGIPWAPLSSCPSQALQLAGCLSQLHSGLFLYQGLLQALEGISPELGPTLDTLQLDVADFATTIWQQMEELGMAPALQPTQGAMPAFASAFQRRAGGVLVASHLQSFLEVSYRVLRHLAQPTPLGPASSLPQSFLLKCLEQVRKIQGDGAALQEKLCATYKLCHPEELVLLGHSLGIPWAPLSSCPSQALQLAGCLSQLHSGLFLYQGLLQALEGISPELGPTLDTLQLDVADFATTIWQQMEELGMAPALQPTQGAMPAFASAFQRRAGGVLVASHLQSFLEVSYRVLRHLAQP",62 % of Neupogen®
4,"Single-chain G-CSF dimer (K16R K34R K40R)copy 1,2 PEG5000 (ligand, SPA-PEG 5000 covalently linked to the available PEGylation sites; number and positions not stated) TPLGPASSLPQSFLLRCLEQVRKIQGDGAALQERLCATYRLCHPEELVLLGHSLGIPWAPLSSCPSQALQLAGCLSQLHSGLFLYQGLLQALEGISPELGPTLDTLQLDVADFATTIWQQMEELGMAPALQPTQGAMPAFASAFQRRAGGVLVASHLQSFLEVSYRVLRHLAQPTPLGPASSLPQSFLLRCLEQVRKIQGDGAALQERLCATYRLCHPEELVLLGHSLGIPWAPLSSCPSQALQLAGCLSQLHSGLFLYQGLLQALEGISPELGPTLDTLQLDVADFATTIWQQMEELGMAPALQPTQGAMPAFASAFQRRAGGVLVASHLQSFLEVSYRVLRHLAQP",10 % of Neupogen®
5,"Single-chain G-CSF dimer (K16R K34R)copy 1,2 (ligand) TPLGPASSLPQSFLLRCLEQVRKIQGDGAALQERLCATYKLCHPEELVLLGHSLGIPWAPLSSCPSQALQLAGCLSQLHSGLFLYQGLLQALEGISPELGPTLDTLQLDVADFATTIWQQMEELGMAPALQPTQGAMPAFASAFQRRAGGVLVASHLQSFLEVSYRVLRHLAQPTPLGPASSLPQSFLLRCLEQVRKIQGDGAALQERLCATYKLCHPEELVLLGHSLGIPWAPLSSCPSQALQLAGCLSQLHSGLFLYQGLLQALEGISPELGPTLDTLQLDVADFATTIWQQMEELGMAPALQPTQGAMPAFASAFQRRAGGVLVASHLQSFLEVSYRVLRHLAQP",329 % of Neupogen®
6,"Single-chain G-CSF dimer PEG5000 (ligand, SPA-PEG 5000 covalently linked to the available PEGylation sites; number and positions not stated) TPLGPASSLPQSFLLKCLEQVRKIQGDGAALQEKLCATYKLCHPEELVLLGHSLGIPWAPLSSCPSQALQLAGCLSQLHSGLFLYQGLLQALEGISPELGPTLDTLQLDVADFATTIWQQMEELGMAPALQPTQGAMPAFASAFQRRAGGVLVASHLQSFLEVSYRVLRHLAQPTPLGPASSLPQSFLLKCLEQVRKIQGDGAALQEKLCATYKLCHPEELVLLGHSLGIPWAPLSSCPSQALQLAGCLSQLHSGLFLYQGLLQALEGISPELGPTLDTLQLDVADFATTIWQQMEELGMAPALQPTQGAMPAFASAFQRRAGGVLVASHLQSFLEVSYRVLRHLAQP",120 % of Neupogen®
7,"Single-chain G-CSF dimer (K16R K34R)copy 1,2 PEG12000 (ligand, SPA-PEG 12000 covalently linked to the available PEGylation sites; number and positions not stated) TPLGPASSLPQSFLLRCLEQVRKIQGDGAALQERLCATYKLCHPEELVLLGHSLGIPWAPLSSCPSQALQLAGCLSQLHSGLFLYQGLLQALEGISPELGPTLDTLQLDVADFATTIWQQMEELGMAPALQPTQGAMPAFASAFQRRAGGVLVASHLQSFLEVSYRVLRHLAQPTPLGPASSLPQSFLLRCLEQVRKIQGDGAALQERLCATYKLCHPEELVLLGHSLGIPWAPLSSCPSQALQLAGCLSQLHSGLFLYQGLLQALEGISPELGPTLDTLQLDVADFATTIWQQMEELGMAPALQPTQGAMPAFASAFQRRAGGVLVASHLQSFLEVSYRVLRHLAQP",8 % of Neupogen®
8,"Single-chain G-CSF dimer (K16R)copy 1,2 (ligand) TPLGPASSLPQSFLLRCLEQVRKIQGDGAALQEKLCATYKLCHPEELVLLGHSLGIPWAPLSSCPSQALQLAGCLSQLHSGLFLYQGLLQALEGISPELGPTLDTLQLDVADFATTIWQQMEELGMAPALQPTQGAMPAFASAFQRRAGGVLVASHLQSFLEVSYRVLRHLAQPTPLGPASSLPQSFLLRCLEQVRKIQGDGAALQEKLCATYKLCHPEELVLLGHSLGIPWAPLSSCPSQALQLAGCLSQLHSGLFLYQGLLQALEGISPELGPTLDTLQLDVADFATTIWQQMEELGMAPALQPTQGAMPAFASAFQRRAGGVLVASHLQSFLEVSYRVLRHLAQP",135 % of Neupogen®
9,"Single-chain G-CSF dimer PEG20000 (ligand, SPA-PEG 20000 covalently linked to the available PEGylation sites; number and positions not stated) TPLGPASSLPQSFLLKCLEQVRKIQGDGAALQEKLCATYKLCHPEELVLLGHSLGIPWAPLSSCPSQALQLAGCLSQLHSGLFLYQGLLQALEGISPELGPTLDTLQLDVADFATTIWQQMEELGMAPALQPTQGAMPAFASAFQRRAGGVLVASHLQSFLEVSYRVLRHLAQPTPLGPASSLPQSFLLKCLEQVRKIQGDGAALQEKLCATYKLCHPEELVLLGHSLGIPWAPLSSCPSQALQLAGCLSQLHSGLFLYQGLLQALEGISPELGPTLDTLQLDVADFATTIWQQMEELGMAPALQPTQGAMPAFASAFQRRAGGVLVASHLQSFLEVSYRVLRHLAQP",25 % of Neupogen®
10,"Single-chain G-CSF dimer (K16R K34R)copy 1,2 PEG5000 (ligand, SPA-PEG 5000 covalently linked to the available PEGylation sites; number and positions not stated) TPLGPASSLPQSFLLRCLEQVRKIQGDGAALQERLCATYKLCHPEELVLLGHSLGIPWAPLSSCPSQALQLAGCLSQLHSGLFLYQGLLQALEGISPELGPTLDTLQLDVADFATTIWQQMEELGMAPALQPTQGAMPAFASAFQRRAGGVLVASHLQSFLEVSYRVLRHLAQPTPLGPASSLPQSFLLRCLEQVRKIQGDGAALQERLCATYKLCHPEELVLLGHSLGIPWAPLSSCPSQALQLAGCLSQLHSGLFLYQGLLQALEGISPELGPTLDTLQLDVADFATTIWQQMEELGMAPALQPTQGAMPAFASAFQRRAGGVLVASHLQSFLEVSYRVLRHLAQP",19 % of Neupogen®
11,Single-chain G-CSF dimer (ligand) TPLGPASSLPQSFLLKCLEQVRKIQGDGAALQEKLCATYKLCHPEELVLLGHSLGIPWAPLSSCPSQALQLAGCLSQLHSGLFLYQGLLQALEGISPELGPTLDTLQLDVADFATTIWQQMEELGMAPALQPTQGAMPAFASAFQRRAGGVLVASHLQSFLEVSYRVLRHLAQPTPLGPASSLPQSFLLKCLEQVRKIQGDGAALQEKLCATYKLCHPEELVLLGHSLGIPWAPLSSCPSQALQLAGCLSQLHSGLFLYQGLLQALEGISPELGPTLDTLQLDVADFATTIWQQMEELGMAPALQPTQGAMPAFASAFQRRAGGVLVASHLQSFLEVSYRVLRHLAQP,214 % of Neupogen®
